According to paper PMC3492137:

Tests used:
[1] = biological target: human immunoglobulin G, biotinylated; assay: microtiter plate dissociation assay (immobilised mutant, hIgG-biotin detected with streptavidin-alkaline phosphatase, A405); details: 2 µg/ml mutant conjugated, 6 µM hIgG-biotin, read off a plot, scale: normalized absorbance at 405 nm
[2] = biological target: Fc portion of human immunoglobulin G, biotinylated; assay: yeast surface display end-point dissociation assay, flow cytometry (strep-PE); details: dissociation at pH 4.5 for 30 min; parent: est. 0.88; read off a plot; scale: normalized fluorescence
[3] = dissociation at pH 2.5 for 30 min, parent: est. 0.33
[4] = dissociation at pH 3.5 for 30 min, parent: est. 0.91
[5] = dissociation at pH 4.5 for 30 min, parent: est. 1.0

response [1, 3] | response [1, 4] | response [1, 5] | response [2] | Substance
0.35 | 0.87 | 1 | – | Sso7d-hFc with a C-terminal cysteine Sso7d-ev-hFc
0.33 | 0.79 | 1 | – | Sso7d-hFc with a C-terminal cysteine Y40H
– | – | – | 0.06 | Sso7d-hFc, yeast cell surface fusion Sso7d-ev-hFc
– | – | – | 0.1 | Sso7d-hFc, yeast cell surface fusion Y40H
